Earlier results, collected in article PMC9760430, “A stapled chromogranin A-derived peptide homes in on tumors that express αvβ6 or αvβ8 integrins” (International Journal of Biological Sciences, 2023).

What was measured:
[1] = target: integrin αvβ6 (Homo sapiens) (UniProt P06756); settings: cited from earlier work
[2] = target: integrin αvβ8 (Homo sapiens) (UniProt P06756); settings: cited from earlier work
Chain of integrin αvβ8 (Homo sapiens) (P06756 31-992, chain 1 of 2): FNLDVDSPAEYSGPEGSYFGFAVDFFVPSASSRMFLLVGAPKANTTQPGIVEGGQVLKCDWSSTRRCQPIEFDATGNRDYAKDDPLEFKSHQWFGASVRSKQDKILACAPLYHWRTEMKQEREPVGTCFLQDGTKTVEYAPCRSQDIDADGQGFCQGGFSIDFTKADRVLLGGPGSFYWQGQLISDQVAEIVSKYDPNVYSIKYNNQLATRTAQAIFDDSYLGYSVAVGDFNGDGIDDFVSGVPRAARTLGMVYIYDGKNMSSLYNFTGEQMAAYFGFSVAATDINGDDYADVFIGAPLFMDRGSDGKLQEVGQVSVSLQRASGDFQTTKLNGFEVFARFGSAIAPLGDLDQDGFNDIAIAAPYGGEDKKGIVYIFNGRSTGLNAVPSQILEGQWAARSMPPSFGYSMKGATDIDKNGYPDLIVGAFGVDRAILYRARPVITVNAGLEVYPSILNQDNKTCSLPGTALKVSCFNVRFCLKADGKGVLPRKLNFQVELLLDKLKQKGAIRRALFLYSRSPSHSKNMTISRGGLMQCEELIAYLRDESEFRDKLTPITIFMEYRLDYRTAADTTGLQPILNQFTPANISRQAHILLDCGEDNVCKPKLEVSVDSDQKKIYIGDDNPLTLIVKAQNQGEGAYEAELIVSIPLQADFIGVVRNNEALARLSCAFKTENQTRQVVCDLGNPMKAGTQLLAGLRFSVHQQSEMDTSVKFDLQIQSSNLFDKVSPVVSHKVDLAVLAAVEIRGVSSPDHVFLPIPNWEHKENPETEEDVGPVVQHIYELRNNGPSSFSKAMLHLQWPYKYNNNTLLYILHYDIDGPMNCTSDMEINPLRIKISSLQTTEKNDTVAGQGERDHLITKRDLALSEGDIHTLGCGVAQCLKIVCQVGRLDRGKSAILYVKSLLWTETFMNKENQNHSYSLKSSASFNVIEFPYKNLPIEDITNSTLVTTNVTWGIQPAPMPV
Chain of integrin αvβ8 (Homo sapiens) (P26012 43-684, chain 2 of 2, further chain): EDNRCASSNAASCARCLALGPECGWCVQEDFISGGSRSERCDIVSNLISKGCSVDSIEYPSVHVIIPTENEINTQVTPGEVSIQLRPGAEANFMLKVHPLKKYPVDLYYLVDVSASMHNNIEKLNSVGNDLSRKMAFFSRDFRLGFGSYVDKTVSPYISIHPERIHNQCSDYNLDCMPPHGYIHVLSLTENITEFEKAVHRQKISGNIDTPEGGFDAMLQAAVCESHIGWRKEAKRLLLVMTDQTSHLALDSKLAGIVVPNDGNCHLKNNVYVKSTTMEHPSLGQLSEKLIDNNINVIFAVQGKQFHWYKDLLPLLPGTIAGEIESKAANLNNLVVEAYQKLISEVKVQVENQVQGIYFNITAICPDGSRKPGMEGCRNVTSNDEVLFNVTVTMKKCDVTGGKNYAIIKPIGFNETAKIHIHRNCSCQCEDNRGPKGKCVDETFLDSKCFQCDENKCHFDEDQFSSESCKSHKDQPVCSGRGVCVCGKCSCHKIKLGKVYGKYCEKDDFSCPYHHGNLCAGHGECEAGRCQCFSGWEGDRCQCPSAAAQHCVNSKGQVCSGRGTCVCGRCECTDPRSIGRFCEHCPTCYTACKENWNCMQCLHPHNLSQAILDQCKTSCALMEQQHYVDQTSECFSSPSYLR

Chain of chromogranin A-derived peptide 5 (P10645 57-81): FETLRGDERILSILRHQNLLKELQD
Chain of integrin αvβ6 (Homo sapiens) (P06756 31-992, chain 1 of 2): as the sequence (P06756 31-992, chain 1 of 2) above
Chain of integrin αvβ6 (Homo sapiens) (P18564 22-709, chain 2 of 2, further chain): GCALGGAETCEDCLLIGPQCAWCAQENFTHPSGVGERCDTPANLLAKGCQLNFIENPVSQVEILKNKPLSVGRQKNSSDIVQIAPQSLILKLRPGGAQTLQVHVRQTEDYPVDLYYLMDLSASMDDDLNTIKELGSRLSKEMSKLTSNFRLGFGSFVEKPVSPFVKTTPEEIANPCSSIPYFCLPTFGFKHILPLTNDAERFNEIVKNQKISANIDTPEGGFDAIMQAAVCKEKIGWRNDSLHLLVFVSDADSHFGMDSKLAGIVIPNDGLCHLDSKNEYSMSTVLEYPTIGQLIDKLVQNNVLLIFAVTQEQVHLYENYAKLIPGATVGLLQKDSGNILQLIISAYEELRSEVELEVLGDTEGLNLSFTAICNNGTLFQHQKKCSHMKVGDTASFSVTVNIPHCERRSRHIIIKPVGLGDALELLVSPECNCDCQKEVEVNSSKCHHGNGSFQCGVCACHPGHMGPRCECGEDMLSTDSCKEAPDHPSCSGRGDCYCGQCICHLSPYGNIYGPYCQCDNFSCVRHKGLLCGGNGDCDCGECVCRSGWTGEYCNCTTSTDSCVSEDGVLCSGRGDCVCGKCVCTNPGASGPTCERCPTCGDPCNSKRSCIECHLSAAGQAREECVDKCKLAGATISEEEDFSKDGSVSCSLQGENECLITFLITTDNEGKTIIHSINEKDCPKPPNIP

## chromogranin A-derived peptide 5 (from UniProt P10645)
[1]
  Ki: 0.6 nM
[2]
  Ki: 3.2 nM
